Measured values taken from article PMC3080791.

Molecular target: α-dystroglycan isolated from skeletal muscle (UniProt Q28685)
Experiment: ELISA

UniProt Q28685, sequence (Q28685 30-653): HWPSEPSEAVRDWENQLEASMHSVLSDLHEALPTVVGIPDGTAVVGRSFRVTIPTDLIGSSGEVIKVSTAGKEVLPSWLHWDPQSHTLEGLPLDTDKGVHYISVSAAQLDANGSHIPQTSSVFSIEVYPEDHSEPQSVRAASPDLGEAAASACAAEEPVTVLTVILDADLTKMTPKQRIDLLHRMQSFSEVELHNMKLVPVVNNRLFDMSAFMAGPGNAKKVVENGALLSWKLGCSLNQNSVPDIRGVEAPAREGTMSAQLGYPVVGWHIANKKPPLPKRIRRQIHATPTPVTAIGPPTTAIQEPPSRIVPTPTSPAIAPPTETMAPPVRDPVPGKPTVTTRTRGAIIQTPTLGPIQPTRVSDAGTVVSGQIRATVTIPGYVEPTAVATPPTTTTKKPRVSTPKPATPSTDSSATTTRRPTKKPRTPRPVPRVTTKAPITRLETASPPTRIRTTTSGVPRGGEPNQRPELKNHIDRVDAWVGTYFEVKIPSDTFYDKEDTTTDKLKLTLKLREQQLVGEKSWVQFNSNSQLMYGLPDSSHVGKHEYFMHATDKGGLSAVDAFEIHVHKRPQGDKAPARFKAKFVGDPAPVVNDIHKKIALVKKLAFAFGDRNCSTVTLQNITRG

## LCMV WE54 envelope glycoprotein displayed on FIV lentiviral vector particles (FIV-WE54) (complex)
  OD relative to wild-type LCMV WE54: 0.33
